# According to US20230287145A1 (Hoffmann-La Roche, published 2023):
# B1: Humanized variant H3L3 of anti-idiotypic antibody 4.24.72 (IgG) (antibody, V domains shown)
# VH: QVQLVQSGSELKKPGASVKVSCKASGYTVTDYSMNWVRQAPGQGLEWMGWINTETGEPRYTQGFKGRFVFSLDTSVSTAYLQISSLKAEDTAVYYCAREGDYDVFDYWGQGTLVTVSS
# VL: DIVMTQSPDSLAVSLGERATINCRASKSVSTSSYSYMHWYQQKPGQPPKLLIKYVSYLESGVPDRFSGSGSGTDFTLTISSLQAEDVAVYYCQQSREFPYTFGQGTKLEIK
# notes: Produced and purified as IgG; also called Mask humanization variant H3L3
# B2: Humanized variant H7L5 of anti-idiotypic antibody 4.24.72 (IgG) (antibody, V domains shown)
# VH: QVQLVQSGAEVKKPGASVKVSCKASGYTVTDYSMNWVRQAPGQGLEWMGWINTETGEPRYTDDFKGRVTMTRDTSISTAYMELSRLRSDDTAVYYCAREGDYDVFDYWGQGTLVTVSS
# VL: DIVMTQSPDSLAVSLGERATINCRASKSVSTSSYSYMHWYQQKPGQPPKLLIYYVSYLESGVPDRFSGSGSGTDFTLTISSLQAEDVAVYYCQHSREFPYTFGQGTKLEIK
# notes: Produced and purified as IgG; also called Mask humanization variant H7L5
# B3: TYRP1 TCB containing the parental CD3 binder CD3orig (bispecific antibody, human IgG1, kappa, L234A L235A)
# heavy 1: not shown
# heavy 2: QVQLVQSGAEVKKPGASVKVSCKASGFNIKDYFLHWVRQAPGQGLEWMGWINPDNGNTVYAQKFQGRVTMTADTSTSTVYMELSSLRSEDTAVYYCTRRDYTYEKAALDYWGQGTLVTVSSASTKGPSVFPLAPSSKSTSGGTAALGCLVEDYFPEPVTVSWNSGALTSGVHTFPAVLQSSGLYSLSSVVTVPSSSLGTQTYICNVNHKPSNTKVDEKVEPKSCDKTHTCPPCPAPEAAGGPSVFLFPPKPKDTLMISRTPEVTCVVVDVSHEDPEVKFNWYVDGVEVHNAKTKPREEQYNSTYRVVSVLTVLHQDWLNGKEYKCKVSNKALGAPIEKTISKAKGQPREPQVCTLPPSRDELTKNQVSLSCAVKGFYPSDIAVEWESNGQPENNYKTTPPVLDSDGSFFLVSKLTVDKSRWQQGNVFSCSVMHEALHNHYTQKSLSLSP
# light 1: DIQMTQSPSSLSASVGDRVTITCRASGNIYNYLAWYQQKPGKVPKLLIYDAKTLADGVPSRFSGSGSGTDFTLTISSLQPEDVATYYCQHFWSLPFTFGQGTKLEIKRTVAAPSVFIFPPSDRKLKSGTASVVCLLNNFYPREAKVQWKVDNALQSGNSQESVTEQDSKDSTYSLSSTLTLSKADYEKHKVYACEVTHQGLSSPVTKSFNRGEC
# light 2: EVQLLESGGGLVQPGGSLRLSCAASGFTFSTYAMNWVRQAPGKGLEWVSRIRSKYNNYATYYADSVKGRFTISRDDSKNTLYLQMNSLRAEDTAVYYCVRHGNFGNSYVSWFAYWGQGTLVTVSSASVAAPSVFIFPPSDEQLKSGTASVVCLLNNFYPREAKVQWKVDNALQSGNSQESVTEQDSKDSTYSLSSTLTLSKADYEKHKVYACEVTHQGLSSPVTKSFNRGEC
# notes: also called CD3orig in TCB format
# B4: TYRP1 TCB containing optimized anti-CD3 antibody clone P035.064 (bispecific antibody, human IgG1, kappa, L234A L235A)
# heavy 1: not shown
# heavy 2: QVQLVQSGAEVKKPGASVKVSCKASGFNIKDYFLHWVRQAPGQGLEWMGWINPDNGNTVYAQKFQGRVTMTADTSTSTVYMELSSLRSEDTAVYYCTRRDYTYEKAALDYWGQGTLVTVSSASTKGPSVFPLAPSSKSTSGGTAALGCLVEDYFPEPVTVSWNSGALTSGVHTFPAVLQSSGLYSLSSVVTVPSSSLGTQTYICNVNHKPSNTKVDEKVEPKSCDKTHTCPPCPAPEAAGGPSVFLFPPKPKDTLMISRTPEVTCVVVDVSHEDPEVKFNWYVDGVEVHNAKTKPREEQYNSTYRVVSVLTVLHQDWLNGKEYKCKVSNKALGAPIEKTISKAKGQPREPQVCTLPPSRDELTKNQVSLSCAVKGFYPSDIAVEWESNGQPENNYKTTPPVLDSDGSFFLVSKLTVDKSRWQQGNVFSCSVMHEALHNHYTQKSLSLSP
# light 1: DIQMTQSPSSLSASVGDRVTITCRASGNIYNYLAWYQQKPGKVPKLLIYDAKTLADGVPSRFSGSGSGTDFTLTISSLQPEDVATYYCQHFWSLPFTFGQGTKLEIKRTVAAPSVFIFPPSDRKLKSGTASVVCLLNNFYPREAKVQWKVDNALQSGNSQESVTEQDSKDSTYSLSSTLTLSKADYEKHKVYACEVTHQGLSSPVTKSFNRGEC
# light 2: EVQLLESGGGLVQPGGSLRLSCAASGFDFDNYAMNWVRQAPGKGLEWVSRIRSKHNGYATYYADSVKGRFTISRDDSKNTLYLQMNSLRAEDTAVYYCVRASNFPSSYVSYFGYWGQGTLVTVSSASVAAPSVFIFPPSDEQLKSGTASVVCLLNNFYPREAKVQWKVDNALQSGNSQESVTEQDSKDSTYSLSSTLTLSKADYEKHKVYACEVTHQGLSSPVTKSFNRGEC
# notes: 2+1 IgG CrossFab, inverted, with charge modifications; knob-into-hole, P329G L234A L235A; also called CD3opt (P035.064)
# B5: TYRP1 TCB containing optimized anti-CD3 antibody clone P021.045 (bispecific antibody, human IgG1, kappa, L234A L235A)
# heavy 1: not shown
# heavy 2: QVQLVQSGAEVKKPGASVKVSCKASGFNIKDYFLHWVRQAPGQGLEWMGWINPDNGNTVYAQKFQGRVTMTADTSTSTVYMELSSLRSEDTAVYYCTRRDYTYEKAALDYWGQGTLVTVSSASTKGPSVFPLAPSSKSTSGGTAALGCLVEDYFPEPVTVSWNSGALTSGVHTFPAVLQSSGLYSLSSVVTVPSSSLGTQTYICNVNHKPSNTKVDEKVEPKSCDKTHTCPPCPAPEAAGGPSVFLFPPKPKDTLMISRTPEVTCVVVDVSHEDPEVKFNWYVDGVEVHNAKTKPREEQYNSTYRVVSVLTVLHQDWLNGKEYKCKVSNKALGAPIEKTISKAKGQPREPQVCTLPPSRDELTKNQVSLSCAVKGFYPSDIAVEWESNGQPENNYKTTPPVLDSDGSFFLVSKLTVDKSRWQQGNVFSCSVMHEALHNHYTQKSLSLSP
# light 1: DIQMTQSPSSLSASVGDRVTITCRASGNIYNYLAWYQQKPGKVPKLLIYDAKTLADGVPSRFSGSGSGTDFTLTISSLQPEDVATYYCQHFWSLPFTFGQGTKLEIKRTVAAPSVFIFPPSDRKLKSGTASVVCLLNNFYPREAKVQWKVDNALQSGNSQESVTEQDSKDSTYSLSSTLTLSKADYEKHKVYACEVTHQGLSSPVTKSFNRGEC
# light 2: EVQLLESGGGLVQPGGSLRLSCAASGFTFSSYAMNWVRQAPGKGLEWVSRIRSKYNNYATYYADSVKGRFTISRDDSKNTLYLQMNSLRAEDTAVYYCVRASNFPSSYVSYFAYWGQGTLVTVSSASVAAPSVFIFPPSDEQLKSGTASVVCLLNNFYPREAKVQWKVDNALQSGNSQESVTEQDSKDSTYSLSSTLTLSKADYEKHKVYACEVTHQGLSSPVTKSFNRGEC
# notes: 2+1 IgG CrossFab, inverted, with charge modifications; knob-into-hole, P329G L234A L235A; also called CD3opt (P021.045)
# B6: TYRP1 TCB containing optimized anti-CD3 antibody clone P004.042 (bispecific antibody, human IgG1, kappa, L234A L235A)
# heavy 1: not shown
# heavy 2: QVQLVQSGAEVKKPGASVKVSCKASGFNIKDYFLHWVRQAPGQGLEWMGWINPDNGNTVYAQKFQGRVTMTADTSTSTVYMELSSLRSEDTAVYYCTRRDYTYEKAALDYWGQGTLVTVSSASTKGPSVFPLAPSSKSTSGGTAALGCLVEDYFPEPVTVSWNSGALTSGVHTFPAVLQSSGLYSLSSVVTVPSSSLGTQTYICNVNHKPSNTKVDEKVEPKSCDKTHTCPPCPAPEAAGGPSVFLFPPKPKDTLMISRTPEVTCVVVDVSHEDPEVKFNWYVDGVEVHNAKTKPREEQYNSTYRVVSVLTVLHQDWLNGKEYKCKVSNKALGAPIEKTISKAKGQPREPQVCTLPPSRDELTKNQVSLSCAVKGFYPSDIAVEWESNGQPENNYKTTPPVLDSDGSFFLVSKLTVDKSRWQQGNVFSCSVMHEALHNHYTQKSLSLSP
# light 1: DIQMTQSPSSLSASVGDRVTITCRASGNIYNYLAWYQQKPGKVPKLLIYDAKTLADGVPSRFSGSGSGTDFTLTISSLQPEDVATYYCQHFWSLPFTFGQGTKLEIKRTVAAPSVFIFPPSDRKLKSGTASVVCLLNNFYPREAKVQWKVDNALQSGNSQESVTEQDSKDSTYSLSSTLTLSKADYEKHKVYACEVTHQGLSSPVTKSFNRGEC
# light 2: EVQLLESGGGLVQPGGSLRLSCAASGFQFDNYAMNWVRQAPGKGLEWVSRIRTKYNEYATYYADSVKGRFTISRDDSKNTLYLQMNSLRAEDTAVYYCVRASNFPQSYVSYFGYWGQGTLVTVSSASVAAPSVFIFPPSDEQLKSGTASVVCLLNNFYPREAKVQWKVDNALQSGNSQESVTEQDSKDSTYSLSSTLTLSKADYEKHKVYACEVTHQGLSSPVTKSFNRGEC
# notes: 2+1 IgG CrossFab, inverted, with charge modifications; knob-into-hole, P329G L234A L235A; also called CD3opt (P004.042)
# What was measured:
# [1] = target: T1, biotinylated anti-human CD3 IgG (anti-CD3 P035.093) (biotinylated (site not stated)); assay: SPR; biotinylated anti-CD3 P035.093 IgG on CAP chip, anti-idiotypic IgG at 1 µg/ml; response normalised to anti-human IgG surface and to the unstressed sample; after 14 d at 37 °C pH 7.4
# T1 construct: IgG format of this reagent is not described further; immobilised on a CAP chip; also called CD3 IgG (P035.093)
# Procedure: Therefore, they were analyzed for thermal stability and remaining target binding after 14 d stress conditions (40° C. at pH6.0 or 37° C. at pH7.4).
# (§1) Flow cell 1 was kept as mock surface. […] Dissociation was monitored for 30 s, the flow rate was set to 5 μl/min. The CAP chip was regenerated by injecting a mix of NaOH and Guadinium-hydrochloride for 120 s, provided in the biotin capture kit. Bulk refractive index differences were corrected by subtracting the response obtained from flow cell 1 (mock surface).
# [2] = target: T1, biotinylated anti-human CD3 IgG …; assay: SPR; biotinylated anti-CD3 P035.093 IgG on CAP chip, anti-idiotypic IgG at 1 µg/ml; response normalised to anti-human IgG surface and to the unstressed sample; after 14 d at 40 °C pH 6.0
# Procedure: as §1
# [3] = target: T2, Human CD3ε stalk-Fc(knob)-Avi/CD3δ stalk-Fc(hole) (human); assay: SPR, biotinylated human CD3ε/δ on SA chip, TCB at 2 µg/ml; response normalised to anti-huIgG capture and referenced to the unstressed sample; after 2 weeks at pH 7.4/37 °C
# T2 construct: Heterodimeric Fc fusion; also called human CD3ε/δ; Human CD3 epsilon stalk-Fc(knob)-Avi
# Procedure: (§2) In order to assess the effect of the deamidation site removal and its effect on the stability of the antibodies, the optimized anti-CD3 antibodies (in TCB format) were incubated for 14 days at 37° C., pH 7.4 and at 40° C., pH 6 and further analyzed by SPR for their binding capability to human CD3ε/δ. Samples stored at −80° C. pH 6 were used as reference. The reference samples and the samples stressed at 40° C. were in 20 mM His, 140 mM NaCl, pH 6.0, and the samples stressed at 37° C. in PBS, pH 7.4, all at a concentration of 1.0 mg/ml. After the stress period (14 days) samples in PBS were dialyzed back to 20 mM His, 140 mM NaCl, pH 6.0 for further analysis.
# (§3) All SPR experiments were performed on a Biacore T200 instrument (GE Healthcare) at 25° C. with HBS-P+ (10 mM HEPES, 150 mM NaCl pH 7.4, 0.05% Surfactant P20) as running and dilution buffer. Biotinylated human CD3ε/δ (see Example 3, SEQ ID NOs 41 and 42) as well as biotinylated anti-huIgG (Capture Select, Thermo Scientific, #7103262100) were immobilized on a Series S Sensor Chip SA (GE Healthcare, #29104992), resulting in surface densities of at least 1000 resonance units (RU). Anti-CD3 antibodies with a concentration of 2 μg/ml were injected for 30 s at a flow rate of 5 μl/min, and dissociation was monitored for 120 s. The surface was regenerated by injecting 10 mM glycine pH 1.5 for 60 s. Bulk refractive index differences were corrected by subtracting blank injections and by subtracting the response obtained from a blank control flow cell. For evaluation, the binding response 5 seconds after injection end was taken. To normalize the binding signal, the CD3 binding was divided by the anti-huIgG response (the signal (RU) obtained upon capture of the CD3 antibody on the immobilized anti-huIgG antibody). The relative binding activity was calculated by referencing each temperature stressed sample to the corresponding, non-stressed sample.
# [4] = target: T2, Human CD3ε stalk-Fc(knob)-Avi/CD3δ …; assay: SPR, biotinylated human CD3ε/δ on SA chip, TCB at 2 µg/ml; response normalised to anti-huIgG capture and referenced to the unstressed sample; after 2 weeks at pH 6.0/40 °C
# Procedure: as §2, §3
# T1 sequence (VH, as listed by the source, chain 1 of 2): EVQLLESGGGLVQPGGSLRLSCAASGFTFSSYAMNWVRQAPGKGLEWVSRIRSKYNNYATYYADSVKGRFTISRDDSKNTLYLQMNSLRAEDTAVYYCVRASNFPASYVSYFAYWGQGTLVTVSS
# T1 sequence (VL, as listed by the source, chain 2 of 2): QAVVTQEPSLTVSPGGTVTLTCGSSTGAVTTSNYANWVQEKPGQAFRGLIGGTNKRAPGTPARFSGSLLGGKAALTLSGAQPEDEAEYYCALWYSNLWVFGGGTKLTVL
Binder,Rel. active concentration [%] [1] [%],Rel. active concentration [%] [2] [%],binding activity [%] [3] [%],binding activity [%] [4] [%]
B1,87,97,–,–
B2,80,98,–,–
B3,–,–,65,95
B4,–,–,96,97
B5,–,–,95,99
B6,–,–,98,98
